Like-named read-outs stand apart in the source and are kept apart here.
T1: Mre11^P84S (LexA-Mre11^P84S) (S. cerevisiae, UniProt P32829 1-692, P84S)
T1 sequence (looked up): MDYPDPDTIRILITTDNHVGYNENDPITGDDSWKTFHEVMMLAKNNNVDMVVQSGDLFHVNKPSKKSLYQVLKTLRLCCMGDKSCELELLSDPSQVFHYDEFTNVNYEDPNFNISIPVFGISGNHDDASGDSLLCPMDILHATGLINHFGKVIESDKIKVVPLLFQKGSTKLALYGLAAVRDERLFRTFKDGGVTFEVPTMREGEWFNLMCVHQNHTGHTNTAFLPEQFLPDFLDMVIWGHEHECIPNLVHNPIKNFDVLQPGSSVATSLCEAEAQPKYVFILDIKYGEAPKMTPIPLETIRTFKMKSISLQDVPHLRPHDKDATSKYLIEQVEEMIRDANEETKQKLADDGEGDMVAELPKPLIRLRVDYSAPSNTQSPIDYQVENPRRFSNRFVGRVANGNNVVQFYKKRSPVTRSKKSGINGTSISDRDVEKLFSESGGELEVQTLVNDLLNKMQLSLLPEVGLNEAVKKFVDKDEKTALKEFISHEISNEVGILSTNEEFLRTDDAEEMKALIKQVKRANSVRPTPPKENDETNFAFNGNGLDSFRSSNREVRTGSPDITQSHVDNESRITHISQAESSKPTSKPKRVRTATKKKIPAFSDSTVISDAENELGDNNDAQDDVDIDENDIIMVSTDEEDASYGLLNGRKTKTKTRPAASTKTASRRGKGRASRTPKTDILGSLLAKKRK

T2: Mre11^T188I (LexA-Mre11^T188I) (S. cerevisiae, UniProt P32829 1-692, T188I)
T2 sequence (looked up): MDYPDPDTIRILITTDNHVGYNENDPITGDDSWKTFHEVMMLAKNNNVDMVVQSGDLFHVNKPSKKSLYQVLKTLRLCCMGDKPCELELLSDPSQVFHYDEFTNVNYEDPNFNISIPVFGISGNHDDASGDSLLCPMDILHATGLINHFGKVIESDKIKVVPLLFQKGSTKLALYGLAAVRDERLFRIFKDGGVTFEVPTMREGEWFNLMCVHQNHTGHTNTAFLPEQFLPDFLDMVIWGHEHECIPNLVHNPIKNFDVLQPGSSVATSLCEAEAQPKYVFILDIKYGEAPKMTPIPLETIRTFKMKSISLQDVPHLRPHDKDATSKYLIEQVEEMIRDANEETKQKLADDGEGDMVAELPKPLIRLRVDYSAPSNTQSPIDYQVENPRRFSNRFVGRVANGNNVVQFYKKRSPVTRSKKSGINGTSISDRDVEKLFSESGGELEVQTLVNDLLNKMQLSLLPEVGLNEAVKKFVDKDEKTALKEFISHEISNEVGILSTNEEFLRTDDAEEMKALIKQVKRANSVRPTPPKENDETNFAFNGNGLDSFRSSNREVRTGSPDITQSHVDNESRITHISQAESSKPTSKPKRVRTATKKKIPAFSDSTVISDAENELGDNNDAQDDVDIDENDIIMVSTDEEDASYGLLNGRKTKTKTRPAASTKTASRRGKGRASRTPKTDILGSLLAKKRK

T3: S. cerevisiae Mre11 (LexA-Mre11) (S. cerevisiae, UniProt P32829 1-692)
T3 sequence (looked up): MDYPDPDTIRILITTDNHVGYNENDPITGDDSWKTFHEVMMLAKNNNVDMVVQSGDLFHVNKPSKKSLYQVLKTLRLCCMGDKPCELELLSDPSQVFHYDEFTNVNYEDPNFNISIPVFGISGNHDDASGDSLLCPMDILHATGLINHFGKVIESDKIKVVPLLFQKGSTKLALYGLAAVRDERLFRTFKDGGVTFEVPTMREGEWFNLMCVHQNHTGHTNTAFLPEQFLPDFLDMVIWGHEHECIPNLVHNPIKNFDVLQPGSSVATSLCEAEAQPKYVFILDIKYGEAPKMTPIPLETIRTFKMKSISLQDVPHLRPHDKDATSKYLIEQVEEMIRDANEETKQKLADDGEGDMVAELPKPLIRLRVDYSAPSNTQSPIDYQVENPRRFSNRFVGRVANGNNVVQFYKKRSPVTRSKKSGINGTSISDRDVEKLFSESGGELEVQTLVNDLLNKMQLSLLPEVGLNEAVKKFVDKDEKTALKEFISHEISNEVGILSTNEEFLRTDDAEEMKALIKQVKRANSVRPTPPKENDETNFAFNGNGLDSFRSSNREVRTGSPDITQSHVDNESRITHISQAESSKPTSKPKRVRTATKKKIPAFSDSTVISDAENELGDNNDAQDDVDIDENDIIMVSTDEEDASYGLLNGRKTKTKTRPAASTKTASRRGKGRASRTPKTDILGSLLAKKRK

T4: Mre11^I158R (LexA-Mre11^I158R) (S. cerevisiae, UniProt P32829 1-692, I158R)
T4 sequence (looked up): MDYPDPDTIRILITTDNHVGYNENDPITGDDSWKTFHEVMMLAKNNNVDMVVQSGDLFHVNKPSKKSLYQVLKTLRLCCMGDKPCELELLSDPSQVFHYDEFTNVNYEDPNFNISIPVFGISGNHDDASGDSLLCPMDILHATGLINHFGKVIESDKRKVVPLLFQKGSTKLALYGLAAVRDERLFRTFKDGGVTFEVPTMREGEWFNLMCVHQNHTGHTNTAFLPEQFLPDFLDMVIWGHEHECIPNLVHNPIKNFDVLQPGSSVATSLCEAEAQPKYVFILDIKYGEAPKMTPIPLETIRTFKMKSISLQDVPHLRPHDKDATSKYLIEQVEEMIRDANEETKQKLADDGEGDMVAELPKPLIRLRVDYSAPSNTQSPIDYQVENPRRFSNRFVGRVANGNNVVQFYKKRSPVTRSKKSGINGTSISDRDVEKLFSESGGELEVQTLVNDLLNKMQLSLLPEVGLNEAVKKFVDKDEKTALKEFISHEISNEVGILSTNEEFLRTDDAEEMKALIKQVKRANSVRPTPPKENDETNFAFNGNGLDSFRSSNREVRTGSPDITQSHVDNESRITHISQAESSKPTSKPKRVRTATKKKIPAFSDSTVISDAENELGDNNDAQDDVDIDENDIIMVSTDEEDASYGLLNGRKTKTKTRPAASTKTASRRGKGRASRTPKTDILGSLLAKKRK

T5: Mre11^D16A (LexA-Mre11^D16A) (S. cerevisiae, UniProt P32829 1-692, D16A)
T5 sequence (looked up): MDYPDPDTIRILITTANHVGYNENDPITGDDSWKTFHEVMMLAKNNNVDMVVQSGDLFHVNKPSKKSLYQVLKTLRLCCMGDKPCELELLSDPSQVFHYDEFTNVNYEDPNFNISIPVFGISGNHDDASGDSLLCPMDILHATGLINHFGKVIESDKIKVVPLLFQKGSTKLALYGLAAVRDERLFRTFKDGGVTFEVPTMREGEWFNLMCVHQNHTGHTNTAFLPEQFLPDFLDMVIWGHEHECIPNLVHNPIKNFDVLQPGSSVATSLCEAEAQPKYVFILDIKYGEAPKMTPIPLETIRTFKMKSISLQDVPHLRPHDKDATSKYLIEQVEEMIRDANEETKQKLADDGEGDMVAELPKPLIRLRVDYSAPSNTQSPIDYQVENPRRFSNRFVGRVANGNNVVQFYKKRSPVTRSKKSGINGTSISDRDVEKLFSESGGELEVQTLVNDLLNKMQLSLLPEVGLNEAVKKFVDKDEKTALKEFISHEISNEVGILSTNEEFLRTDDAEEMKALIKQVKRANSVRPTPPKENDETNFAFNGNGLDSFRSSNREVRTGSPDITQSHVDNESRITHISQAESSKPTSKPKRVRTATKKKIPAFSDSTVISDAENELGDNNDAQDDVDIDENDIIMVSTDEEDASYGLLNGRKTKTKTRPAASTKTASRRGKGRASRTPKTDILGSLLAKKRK


Key:
Test in all cases: two-hybrid
[1] = biological target: S. cerevisiae Mre11 (LexA-Mre11) (S. cerevisiae) (UniProt P32829)
[2] = biological target: S. cerevisiae Mre11 (LexA-Mre11) (S. cerevisiae) (UniProt P32829); remark: listed apart in the source
[3] = biological target: T1, Mre11^P84S (LexA-Mre11^P84S)
[4] = biological target: T2, Mre11^T188I (LexA-Mre11^T188I)
[5] = biological target: T3, S. cerevisiae Mre11 (LexA-Mre11)
[6] = biological target: T4, Mre11^I158R (LexA-Mre11^I158R)
[7] = biological target: T5, Mre11^D16A (LexA-Mre11^D16A)
[8] = biological target: T3, S. cerevisiae Mre11 (LexA-Mre11); remark: listed apart in the source
[9] = biological target: T4, Mre11^I158R (LexA-Mre11^I158R); remark: listed apart in the source

| Molecule | two-hybrid β-galactosidase activity (β-galactosidase units) [1] | two-hybrid β-galactosidase activity (β-galactosidase units) [2] | two-hybrid β-galactosidase activity [3] | two-hybrid β-galactosidase activity [4] | two-hybrid β-galactosidase activity [5] | two-hybrid β-galactosidase activity [6] | two-hybrid β-galactosidase activity [7] | two-hybrid β-galactosidase activity [8] | two-hybrid β-galactosidase activity [9] |
| --- | --- | --- | --- | --- | --- | --- | --- | --- | --- |
| Smt3 (Gal4AD-Smt3) (natural protein, S. cerevisiae, UniProt Q12306 1-101, looked up) MSDSEVNQEAKPEVKPEVKPETHINLKVSDGSSEIFFKIKKTTPLRRLMEAFAKRQGKEMDSLRFLYDGIRIQADQTPEDLDMEDNDIIEAHREQIGGATY | – | – | 51.7 ± 3.1 β-galactosidase units | 60.1 ± 3.6 β-galactosidase units | – | – | – | – | – |
| Xrs2 (Gal4AD-Xrs2) (natural protein, S. cerevisiae, UniProt P33301 1-854, looked up) MWVVRYQNTLEDGSISFISCCLQAFKTYSIGRSSKNPLIIKNDKSISRQHITFKWEINNSSDLKHSSLCLVNKGKLTSLNKKFMKVGETFTINASDVLKSTIIELGTTPIRIEFEWINEVWNIPPHLTQFRTMLSEYGISTEISINDIPANLMISDYPKSEDNSIRELYALVSTIPMKKSRFLMELCNTLLPTSKTNLKFDEMWNDMISNPEYNVFDFDPNILLSKFMRLNNIRVLTTIKSEPRLSSLLRTFNINLFAFDNIDSLYKYVDSLEASTEYLILTTTDKKENGKILCTIKTMLTSIIDGTLSAVINMKGASSRTLDNGKFDQISEGMSTILKTSRAPEVEASPVVSKKRKLNRRRVLPLDSLDFFAGGLSTKTLSENRSLTDAKRLNCGAESKTVISSPNIAEADEKHAPFLQNALKPTEDIGKKSGHSSPGAIIVSSPNLGTVNTSEDSLDKSLQSHKLPQPSLPEVAGIGSQTISSNSADYETAAVNSMDDAEVTKNFRVNHHQNIEQPSKNIRKLSNYSREISSPLQENCKSPVKELSIKEKSGTPHAFVEAIQETKNREVKRVKSTIVELKDEELSEEAINQLKNLAIVEPSNNLLRKSFDSEGNKTSRTTEKWENSLMEPEWHKRKNFKTFVKVRPKSKAHKEEGKNNTQSSDFIRNAAFLITRNYVPLKKYSKKDTTTKWGTEENEDMFALTEMERFGSNTFMSDNINSNTIQKRSQALNRFTNEDSSNEGEEDSFSFSRCSGTAASVQPLKNKIFITDEDDLGDIDDKSDRLNHRENNRNLFVVKEMNLRPNLSEECSKQSRHSRSATSRSRGSFGASNNGDGDDDDDDGPKFTFKRRKG | – | – | 162 ± 6.4 β-galactosidase units | 153 ± 4.7 β-galactosidase units | 188 ± 8.5 β-galactosidase units | 37.9 ± 4 β-galactosidase units | 76.2 ± 7 β-galactosidase units | 125 ± 9.5 β-galactosidase units | 35.1 ± 1 β-galactosidase units |

The remaining lines, values ahead:

| two-hybrid β-galactosidase activity (β-galactosidase units) [1] | two-hybrid β-galactosidase activity (β-galactosidase units) [2] | two-hybrid β-galactosidase activity [3] | two-hybrid β-galactosidase activity [4] | two-hybrid β-galactosidase activity [5] | two-hybrid β-galactosidase activity [6] | two-hybrid β-galactosidase activity [7] | two-hybrid β-galactosidase activity [8] | two-hybrid β-galactosidase activity [9] | Molecule |
| --- | --- | --- | --- | --- | --- | --- | --- | --- | --- |
| 21.8 | 5.4 | – | – | – | – | – | – | – | Smt3-allR (Gal4AD-Smt3^allR) (from UniProt Q12306 1-101) (natural protein) |
| 71.9 | 38.8 | – | – | – | – | – | – | – | Smt3 (Gal4AD-Smt3) (from UniProt Q12306 1-101) (natural protein) |

From article PMC4797280 (Nucleic Acids Research, 2016)
